Molecular target: T1, Strep-Opa1 (s-Opa1, amino acids 253-960), expressed in P. pastoris (human, UniProt O60313 253-960)
T1 construct: Opa1 (optic atrophy 1), human, residues 253-960 (s-Opa1); N-terminal Twin-Strep tag, HRV 3C cleavage site and (G4S)3 linker; The methods also name a tagged Opa1(263-960); also called optic atrophy 1; Opa1(253-960); source: P. pastoris SMD1163, in GDN extract (lysate); purified as a complex with SLC25A46 for cross-linking; not shown: Twin-Strep, N-terminal, kept
T1 sequence (looked up): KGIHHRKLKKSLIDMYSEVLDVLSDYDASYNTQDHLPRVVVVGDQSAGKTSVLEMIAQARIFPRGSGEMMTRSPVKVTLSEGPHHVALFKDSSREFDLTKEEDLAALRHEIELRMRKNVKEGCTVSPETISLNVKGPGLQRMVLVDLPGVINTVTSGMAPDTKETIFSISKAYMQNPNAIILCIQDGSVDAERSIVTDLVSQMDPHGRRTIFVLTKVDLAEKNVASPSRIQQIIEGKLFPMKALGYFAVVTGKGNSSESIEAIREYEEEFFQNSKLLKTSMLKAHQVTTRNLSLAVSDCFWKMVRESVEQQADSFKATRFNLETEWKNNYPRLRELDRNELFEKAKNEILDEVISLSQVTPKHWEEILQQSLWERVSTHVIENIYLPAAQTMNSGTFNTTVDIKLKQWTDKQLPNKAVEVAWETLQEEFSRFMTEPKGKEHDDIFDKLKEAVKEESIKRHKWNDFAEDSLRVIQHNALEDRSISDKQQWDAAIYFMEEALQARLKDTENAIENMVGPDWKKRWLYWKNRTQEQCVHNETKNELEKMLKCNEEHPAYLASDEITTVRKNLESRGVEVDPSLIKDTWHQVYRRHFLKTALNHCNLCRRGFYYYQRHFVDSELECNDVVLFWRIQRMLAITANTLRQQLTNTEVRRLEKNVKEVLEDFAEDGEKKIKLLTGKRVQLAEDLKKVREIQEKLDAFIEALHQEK
Assay: pull-down; GDN extracts of P. pastoris expressing or coexpressing the proteins; Strep-tagged Opa1 or Mfn2 held on StrepTactin XT 4Flow resin in a spin column, 4 °C, 25 mM Hepes, 150 mM NaCl, pH 8.0, washes with 0.1% GDN, elution with 50 mM biotin; Western blot; also with GTPγS, GMPPCP or GDP added to the lysates (no effect on coelution)
Conditions: partners not purified

B1: Solute carrier family 25 member A46 with C-terminal deca-histidine (SLC25A46-His), wild type (natural protein, human, UniProt Q96AG3 1-418, looked up)
chain: MHPRRPDGFDGLGYRGGARDEQGFGGAFPARSFSTGSDLGHWVTTPPDIPGSRNLHWGEKSPPYGVPTTSTPYEGPTEEPFSSGGGGSVQGQSSEQLNRFAGFGIGLASLFTENVLAHPCIVLRRQCQVNYHAQHYHLTPFTVINIMYSFNKTQGPRALWKGMGSTFIVQGVTLGAEGIISEFTPLPREVLHKWSPKQIGEHLLLKSLTYVVAMPFYSASLIETVQSEIIRDNTGILECVKEGIGRVIGMGVPHSKRLLPLLSLIFPTVLHGVLHYIISSVIQKFVLLILKRKTYNSHLAESTSPVQSMLDAYFPELIANFAASLCSDVILYPLETVLHRLHIQGTRTIIDNTDLGYEVLPINTQYEGMRDCINTIRQEEGVFGFYKGFGAVIIQYTLHAAVLQITKIIYSTLLQNNI
notes: SLC25A46, human; gene synthesized (GenScript), cloned into pPICZ A; C terminus fused to (G4S)3 linker, TEV cleavage site and deca-histidine; only a pPICZ A (P. pastoris) construct of SLC25A46 is described; also called WT SLC25A46; source: P. pastoris SMD1163, in GDN extract (lysate); also recombinantly expressed and purified; not shown: His10, C-terminal, kept
binding result: binds

Reference: paper PMC11459905, “Identification of SLC25A46 interaction interfaces with mitochondrial membrane fusogens Opa1 and Mfn2” (The Journal of Biological Chemistry, 2024)
